Data from patent US8318206.

Key:
[1] = target: T1, Fmoc-Gly-Phe-Cys-NH2 (peptide 1)
T1 chain: GFC

[2] = target: T2, Fmoc-Gly-d-Phe-d-Cys (peptide 2) (not fully specified)
T2 chain: GFC

B1: thermolysin from B. thermoproteolyticus Rokko (protein)
chain: ITGTSTVGVGRGVLGDQKNINTTYSTYYYLQDNTRGNGIFTYDAKYRTTLPGSLWADADNQFFASYDAPAVDAHYYAGVTYDYYKNVHNRLSYDGNNAAIRSSVHYSQGYNNAFWNGSQMVYGDGDGQTFIPLSGGIDVVAHELTHAVTDYTAGLIYQNESGAINEAISDIFGTLVEFYANKNPDWEIGEDVYTPGISGDSLRSMSDPAKYGDPDHYSKRYTGTQDNGGVHINSGIINKAAYLISQGGTHYGVSVVGIGRDKLGKIFYRALTQYLTPTSNFSQLRAAAVQSATDLYGSTSQEVASVKQAFDAVGVK
HPLC of the supernatant after thermolysin treatment (cleaved fragment) [1]: HPLC of the supernatant detected the presence of Fmoc-Gly only | shift in the plasmon resonance peak (UV-visible spectra), 6 h after addition of 7.2 nM thermolysin [1]: a clear shift in the plasmon resonance peak from 565 nm to 532 nm 6 h after addition of 7.2 nM thermolysin | Δ ratio A/D over a period of 47 h, 7.2 nM thermolysin [1]: The Δ ratio A/D increases over a period of 47 h for 7.2 nM and 2.08 zM, to 96.5% and 25.2% respectively | Δ ratio A/D over a period of 47 h, 2.08 zM thermolysin [1]: The Δ ratio A/D increases over a period of 47 h for 7.2 nM and 2.08 zM, to 96.5% and 25.2% respectively | dispersion of nanoparticle aggregate [2]: nanoparticles functionalised with Fmoc-Gly-d-Phe-d-Cys did not disperse upon introduction of thermolysin
